Measured values reported in PMC5976236.

What was measured:
[1] = molecular target: recombinant human galectin-3 (human) (UniProt P17931); assay: atomic force microscopy force spectroscopy; Gal-3 attached to a slide, mDectin-2 or SIGN-R1 (untreated or PNGase F-treated) on the AFM tips; PBS
[2] = molecular target: Muc2 from colon of wild-type C57BL/6 mice (mouse (endogenous in C57BL/6 colon)) (UniProt Q80Z19); assay: atomic force microscopy force spectroscopy; C-type lectins attached to the AFM tip via the PEG linker, mucin covalently attached to the glass slide; PBS; 1024 force curves
Muc2 from colon of wild-type C57BL/6 mice (mouse (endogenous in C57BL/6 colon)), sequence (Q80Z19 21-4576): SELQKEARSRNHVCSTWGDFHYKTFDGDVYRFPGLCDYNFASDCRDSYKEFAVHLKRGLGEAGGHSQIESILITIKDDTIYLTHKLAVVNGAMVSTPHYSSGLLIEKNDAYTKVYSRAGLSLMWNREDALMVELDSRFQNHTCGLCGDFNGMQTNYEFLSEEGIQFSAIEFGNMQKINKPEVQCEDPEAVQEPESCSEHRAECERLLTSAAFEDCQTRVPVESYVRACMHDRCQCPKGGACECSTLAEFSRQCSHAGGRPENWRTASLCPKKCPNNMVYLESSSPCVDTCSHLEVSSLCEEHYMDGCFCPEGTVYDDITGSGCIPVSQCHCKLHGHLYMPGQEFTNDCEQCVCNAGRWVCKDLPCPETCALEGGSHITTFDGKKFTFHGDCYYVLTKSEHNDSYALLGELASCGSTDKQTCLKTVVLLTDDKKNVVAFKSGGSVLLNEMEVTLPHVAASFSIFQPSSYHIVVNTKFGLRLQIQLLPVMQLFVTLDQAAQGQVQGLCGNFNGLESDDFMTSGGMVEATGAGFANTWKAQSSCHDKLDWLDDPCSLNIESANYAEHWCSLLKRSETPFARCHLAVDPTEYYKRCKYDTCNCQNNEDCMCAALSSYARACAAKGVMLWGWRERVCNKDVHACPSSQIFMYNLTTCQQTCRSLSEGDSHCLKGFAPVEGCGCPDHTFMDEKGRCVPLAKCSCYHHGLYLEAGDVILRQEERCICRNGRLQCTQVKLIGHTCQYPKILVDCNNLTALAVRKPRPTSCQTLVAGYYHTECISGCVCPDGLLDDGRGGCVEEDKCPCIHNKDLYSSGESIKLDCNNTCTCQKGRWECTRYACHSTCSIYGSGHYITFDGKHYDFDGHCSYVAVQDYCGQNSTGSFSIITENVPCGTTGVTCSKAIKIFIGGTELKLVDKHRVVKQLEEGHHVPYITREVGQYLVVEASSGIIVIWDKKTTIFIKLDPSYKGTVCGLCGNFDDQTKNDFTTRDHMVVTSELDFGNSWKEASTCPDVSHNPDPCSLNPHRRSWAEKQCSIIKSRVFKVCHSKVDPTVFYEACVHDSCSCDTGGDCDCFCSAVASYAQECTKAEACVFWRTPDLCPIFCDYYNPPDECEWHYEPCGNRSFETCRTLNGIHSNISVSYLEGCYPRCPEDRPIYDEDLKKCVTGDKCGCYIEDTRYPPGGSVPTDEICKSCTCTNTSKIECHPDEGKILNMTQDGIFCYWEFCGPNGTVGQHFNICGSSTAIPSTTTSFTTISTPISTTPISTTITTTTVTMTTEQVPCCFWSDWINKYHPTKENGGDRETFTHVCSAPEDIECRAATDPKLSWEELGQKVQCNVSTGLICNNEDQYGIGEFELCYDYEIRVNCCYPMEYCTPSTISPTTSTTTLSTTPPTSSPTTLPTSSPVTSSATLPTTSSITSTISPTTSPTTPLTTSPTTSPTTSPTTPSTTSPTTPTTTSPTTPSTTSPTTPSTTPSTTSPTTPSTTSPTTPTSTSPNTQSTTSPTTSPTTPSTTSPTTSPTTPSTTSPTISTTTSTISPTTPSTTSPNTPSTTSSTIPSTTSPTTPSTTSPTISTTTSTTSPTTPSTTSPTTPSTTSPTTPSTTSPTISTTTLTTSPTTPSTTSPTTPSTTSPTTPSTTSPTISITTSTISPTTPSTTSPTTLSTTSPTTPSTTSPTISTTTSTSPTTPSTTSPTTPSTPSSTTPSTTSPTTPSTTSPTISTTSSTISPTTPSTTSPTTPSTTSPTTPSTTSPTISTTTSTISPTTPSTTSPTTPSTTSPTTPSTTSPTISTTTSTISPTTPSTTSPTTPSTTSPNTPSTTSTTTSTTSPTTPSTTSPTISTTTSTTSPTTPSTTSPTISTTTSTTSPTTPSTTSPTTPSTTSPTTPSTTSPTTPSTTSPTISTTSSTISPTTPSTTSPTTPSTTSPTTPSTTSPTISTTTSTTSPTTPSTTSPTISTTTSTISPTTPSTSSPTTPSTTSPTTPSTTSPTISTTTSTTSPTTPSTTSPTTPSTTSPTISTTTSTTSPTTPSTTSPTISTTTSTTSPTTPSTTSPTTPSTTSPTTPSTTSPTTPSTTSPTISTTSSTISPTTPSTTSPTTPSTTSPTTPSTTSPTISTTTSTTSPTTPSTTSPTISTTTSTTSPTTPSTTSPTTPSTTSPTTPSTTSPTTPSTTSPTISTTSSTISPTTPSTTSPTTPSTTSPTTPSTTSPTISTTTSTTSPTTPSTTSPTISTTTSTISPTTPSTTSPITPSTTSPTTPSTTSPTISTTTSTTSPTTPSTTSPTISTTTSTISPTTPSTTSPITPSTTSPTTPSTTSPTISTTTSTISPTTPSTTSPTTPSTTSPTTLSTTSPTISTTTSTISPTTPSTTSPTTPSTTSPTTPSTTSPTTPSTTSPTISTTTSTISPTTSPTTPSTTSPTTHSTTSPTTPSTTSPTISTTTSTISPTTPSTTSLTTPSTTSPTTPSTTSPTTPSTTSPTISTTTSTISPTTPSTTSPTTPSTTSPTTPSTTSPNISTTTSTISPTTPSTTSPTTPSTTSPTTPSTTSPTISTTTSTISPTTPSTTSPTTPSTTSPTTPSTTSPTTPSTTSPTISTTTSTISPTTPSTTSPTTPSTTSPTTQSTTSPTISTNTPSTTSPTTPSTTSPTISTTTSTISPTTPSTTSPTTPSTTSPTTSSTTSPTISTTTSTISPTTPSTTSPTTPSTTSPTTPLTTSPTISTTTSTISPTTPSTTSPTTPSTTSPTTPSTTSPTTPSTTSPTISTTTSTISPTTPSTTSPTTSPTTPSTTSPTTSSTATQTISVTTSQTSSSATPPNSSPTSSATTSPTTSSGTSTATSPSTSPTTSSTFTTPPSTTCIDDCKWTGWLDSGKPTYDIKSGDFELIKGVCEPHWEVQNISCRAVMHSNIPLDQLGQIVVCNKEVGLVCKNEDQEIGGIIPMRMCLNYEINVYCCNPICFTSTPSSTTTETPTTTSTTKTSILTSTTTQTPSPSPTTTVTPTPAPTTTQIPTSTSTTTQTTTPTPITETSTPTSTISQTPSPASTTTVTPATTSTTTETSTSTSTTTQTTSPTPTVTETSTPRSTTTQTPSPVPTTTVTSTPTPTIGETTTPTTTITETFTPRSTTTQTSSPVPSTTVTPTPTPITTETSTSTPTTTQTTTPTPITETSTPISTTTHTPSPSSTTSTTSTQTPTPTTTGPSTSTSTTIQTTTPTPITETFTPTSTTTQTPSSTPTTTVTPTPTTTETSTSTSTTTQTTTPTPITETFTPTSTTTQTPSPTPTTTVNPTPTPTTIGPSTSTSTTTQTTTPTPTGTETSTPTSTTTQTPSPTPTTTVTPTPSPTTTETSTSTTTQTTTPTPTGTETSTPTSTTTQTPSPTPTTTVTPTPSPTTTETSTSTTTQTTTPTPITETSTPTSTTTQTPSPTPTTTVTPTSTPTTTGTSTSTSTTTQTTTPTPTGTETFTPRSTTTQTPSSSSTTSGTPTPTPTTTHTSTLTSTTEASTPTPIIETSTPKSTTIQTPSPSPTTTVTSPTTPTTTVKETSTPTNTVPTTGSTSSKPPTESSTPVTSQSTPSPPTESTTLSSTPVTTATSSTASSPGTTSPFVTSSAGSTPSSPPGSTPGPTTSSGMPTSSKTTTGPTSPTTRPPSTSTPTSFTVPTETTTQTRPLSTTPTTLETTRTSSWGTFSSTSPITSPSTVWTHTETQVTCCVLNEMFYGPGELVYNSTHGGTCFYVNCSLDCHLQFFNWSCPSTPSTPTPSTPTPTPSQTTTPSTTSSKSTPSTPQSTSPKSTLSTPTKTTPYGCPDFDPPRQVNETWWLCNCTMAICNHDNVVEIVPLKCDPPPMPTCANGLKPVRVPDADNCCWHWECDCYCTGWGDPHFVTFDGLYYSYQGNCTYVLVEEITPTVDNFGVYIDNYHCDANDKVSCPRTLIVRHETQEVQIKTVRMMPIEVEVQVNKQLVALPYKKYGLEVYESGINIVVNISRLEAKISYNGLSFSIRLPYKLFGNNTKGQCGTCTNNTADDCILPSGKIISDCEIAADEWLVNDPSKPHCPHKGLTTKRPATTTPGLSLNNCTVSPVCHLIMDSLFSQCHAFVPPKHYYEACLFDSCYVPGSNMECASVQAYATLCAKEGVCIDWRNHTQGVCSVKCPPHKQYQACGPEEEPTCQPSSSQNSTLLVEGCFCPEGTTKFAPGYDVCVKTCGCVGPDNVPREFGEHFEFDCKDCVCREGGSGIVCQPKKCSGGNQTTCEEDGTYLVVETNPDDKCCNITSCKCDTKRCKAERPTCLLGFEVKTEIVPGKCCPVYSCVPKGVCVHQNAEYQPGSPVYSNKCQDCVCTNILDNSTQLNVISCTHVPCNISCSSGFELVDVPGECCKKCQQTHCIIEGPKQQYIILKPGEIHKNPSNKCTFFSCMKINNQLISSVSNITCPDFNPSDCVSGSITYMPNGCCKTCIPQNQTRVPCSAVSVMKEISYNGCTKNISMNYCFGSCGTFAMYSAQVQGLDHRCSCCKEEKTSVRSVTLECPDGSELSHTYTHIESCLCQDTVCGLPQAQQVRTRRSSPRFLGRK

recombinant human galectin-3 (human), sequence (P17931 whole entry): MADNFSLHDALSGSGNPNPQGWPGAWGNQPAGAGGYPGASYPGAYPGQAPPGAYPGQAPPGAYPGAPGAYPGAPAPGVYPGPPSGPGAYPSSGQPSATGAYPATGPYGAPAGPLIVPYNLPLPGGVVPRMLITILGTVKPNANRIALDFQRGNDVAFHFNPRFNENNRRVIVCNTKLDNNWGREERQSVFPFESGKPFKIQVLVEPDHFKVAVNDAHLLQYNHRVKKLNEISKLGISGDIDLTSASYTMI

Q: Which results are given for “recombinant murine SIGN-R1 (from UniProt Q8CJ91 1-325) (receptor)”?
A: modal value of adhesion [1]: 17.1 pN; adhesion force of some binding events [2]: 3210 pN; modal value of adhesions [2]: 292 pN
